Results: the supplement of paper PMC10065799, “High-throughput profiling of sequence recognition by tyrosine kinases and SH2 domains using bacterial peptide display” (eLife, 2023)

Key:
[1] = system: AncSZ; assay: phosphorylation enrichment, bacterial display (enrichment ratio); higher = better substrate or ligand; peptides without Tyr show the background
[2] = target: EPHB1 (UniProt P54762); assay: as above
[3] = target: EPHB2 (UniProt P29323); assay: as above
[4] = target: FGFR1 (UniProt P11362); assay: as above
[5] = target: FGFR3 (UniProt P22607); assay: as above
[6] = system: Fer (mouse); assay: as above
[7] = target: Fes (UniProt P07332); assay: as above
[8] = target: Fyn (UniProt P06241); assay: as above
[9] = target: Hck (UniProt P08631); assay: as above
[10] = target: Jak2 (UniProt O60674); assay: as above
[11] = target: MERTK (UniProt Q12866); assay: as above
[12] = system: c-Abl (mouse); assay: as above
[13] = system: c-Src; assay: as above
[14] = target: Grb2 SH2 (UniProt P62993); assay: SH2 binding enrichment of the phosphorylated peptide, bacterial display (enrichment ratio); higher = better substrate or ligand; peptides without Tyr show the background
[15] = target: SHP2-C SH2; assay: as above
[16] = target: c-Src SH2; assay: as above
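Wherever SH2 binding enrichment of the phosphorylated peptide, bacterial display is given: peptide library displayed on the E. coli surface as eCPX fusions, selected cells deep-sequenced, score is each peptide's frequency after selection divided by its frequency in the input.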
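Wherever phosphorylation enrichment, bacterial display is given: 11-residue human phosphosite peptides and single-mutation variants displayed on the E. coli surface, counted by deep sequencing, each peptide's frequency after selection divided by its frequency in the unselected input library; frequency after pTyr selection over input frequency; kinase dosed for 20-30% of maximal phosphorylation in three min.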

Sequence of EPHB1 (P54762 whole entry, looked up): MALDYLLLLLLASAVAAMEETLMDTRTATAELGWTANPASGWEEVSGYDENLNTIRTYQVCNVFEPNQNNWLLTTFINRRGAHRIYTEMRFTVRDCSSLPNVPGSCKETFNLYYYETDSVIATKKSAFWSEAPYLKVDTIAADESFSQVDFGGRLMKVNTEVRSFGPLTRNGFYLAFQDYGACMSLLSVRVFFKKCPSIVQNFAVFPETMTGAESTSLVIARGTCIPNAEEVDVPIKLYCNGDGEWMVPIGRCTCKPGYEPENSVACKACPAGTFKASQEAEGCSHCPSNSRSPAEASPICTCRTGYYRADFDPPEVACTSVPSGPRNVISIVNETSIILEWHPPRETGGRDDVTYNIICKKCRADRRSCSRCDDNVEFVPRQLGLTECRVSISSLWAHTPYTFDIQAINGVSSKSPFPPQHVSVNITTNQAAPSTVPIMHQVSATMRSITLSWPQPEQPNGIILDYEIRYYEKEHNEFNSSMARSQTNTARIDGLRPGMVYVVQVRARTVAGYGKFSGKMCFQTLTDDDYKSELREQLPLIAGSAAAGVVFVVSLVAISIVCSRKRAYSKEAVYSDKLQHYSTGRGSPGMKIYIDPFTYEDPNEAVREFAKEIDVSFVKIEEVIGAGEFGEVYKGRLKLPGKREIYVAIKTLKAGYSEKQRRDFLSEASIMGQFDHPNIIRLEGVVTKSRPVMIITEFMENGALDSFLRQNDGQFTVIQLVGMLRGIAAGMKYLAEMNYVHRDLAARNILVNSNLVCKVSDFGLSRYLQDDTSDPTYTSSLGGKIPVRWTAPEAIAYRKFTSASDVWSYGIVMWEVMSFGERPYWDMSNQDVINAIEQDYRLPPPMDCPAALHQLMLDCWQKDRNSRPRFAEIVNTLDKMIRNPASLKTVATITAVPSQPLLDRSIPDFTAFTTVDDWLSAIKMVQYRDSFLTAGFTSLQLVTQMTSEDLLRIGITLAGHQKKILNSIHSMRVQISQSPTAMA
Sequence of MERTK (Q12866 whole entry, looked up): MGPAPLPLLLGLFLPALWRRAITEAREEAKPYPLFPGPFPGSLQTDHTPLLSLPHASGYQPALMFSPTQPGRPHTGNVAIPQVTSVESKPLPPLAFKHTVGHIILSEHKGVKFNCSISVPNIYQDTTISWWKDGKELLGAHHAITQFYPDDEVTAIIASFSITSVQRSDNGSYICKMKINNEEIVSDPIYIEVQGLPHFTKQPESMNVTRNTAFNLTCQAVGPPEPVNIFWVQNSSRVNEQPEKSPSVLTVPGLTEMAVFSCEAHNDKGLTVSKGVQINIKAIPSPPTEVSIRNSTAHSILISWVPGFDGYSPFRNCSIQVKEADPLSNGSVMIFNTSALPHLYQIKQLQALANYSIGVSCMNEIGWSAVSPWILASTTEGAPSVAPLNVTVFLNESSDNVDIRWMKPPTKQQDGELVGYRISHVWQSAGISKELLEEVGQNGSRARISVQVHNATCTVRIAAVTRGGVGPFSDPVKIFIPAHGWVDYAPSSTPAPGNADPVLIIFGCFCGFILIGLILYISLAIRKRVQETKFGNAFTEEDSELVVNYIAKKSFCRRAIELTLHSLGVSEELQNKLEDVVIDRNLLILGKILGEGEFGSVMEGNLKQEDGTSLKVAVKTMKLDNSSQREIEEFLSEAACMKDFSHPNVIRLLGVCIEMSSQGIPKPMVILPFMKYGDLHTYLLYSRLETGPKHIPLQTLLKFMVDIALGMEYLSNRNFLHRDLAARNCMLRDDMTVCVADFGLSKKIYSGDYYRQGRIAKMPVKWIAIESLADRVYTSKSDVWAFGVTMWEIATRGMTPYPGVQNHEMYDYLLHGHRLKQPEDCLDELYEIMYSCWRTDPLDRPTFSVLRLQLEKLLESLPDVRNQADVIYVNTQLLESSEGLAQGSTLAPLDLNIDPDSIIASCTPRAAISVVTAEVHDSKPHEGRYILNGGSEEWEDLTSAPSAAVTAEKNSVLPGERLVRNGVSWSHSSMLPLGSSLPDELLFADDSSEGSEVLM
Sequence of FGFR1 (P11362 whole entry, looked up): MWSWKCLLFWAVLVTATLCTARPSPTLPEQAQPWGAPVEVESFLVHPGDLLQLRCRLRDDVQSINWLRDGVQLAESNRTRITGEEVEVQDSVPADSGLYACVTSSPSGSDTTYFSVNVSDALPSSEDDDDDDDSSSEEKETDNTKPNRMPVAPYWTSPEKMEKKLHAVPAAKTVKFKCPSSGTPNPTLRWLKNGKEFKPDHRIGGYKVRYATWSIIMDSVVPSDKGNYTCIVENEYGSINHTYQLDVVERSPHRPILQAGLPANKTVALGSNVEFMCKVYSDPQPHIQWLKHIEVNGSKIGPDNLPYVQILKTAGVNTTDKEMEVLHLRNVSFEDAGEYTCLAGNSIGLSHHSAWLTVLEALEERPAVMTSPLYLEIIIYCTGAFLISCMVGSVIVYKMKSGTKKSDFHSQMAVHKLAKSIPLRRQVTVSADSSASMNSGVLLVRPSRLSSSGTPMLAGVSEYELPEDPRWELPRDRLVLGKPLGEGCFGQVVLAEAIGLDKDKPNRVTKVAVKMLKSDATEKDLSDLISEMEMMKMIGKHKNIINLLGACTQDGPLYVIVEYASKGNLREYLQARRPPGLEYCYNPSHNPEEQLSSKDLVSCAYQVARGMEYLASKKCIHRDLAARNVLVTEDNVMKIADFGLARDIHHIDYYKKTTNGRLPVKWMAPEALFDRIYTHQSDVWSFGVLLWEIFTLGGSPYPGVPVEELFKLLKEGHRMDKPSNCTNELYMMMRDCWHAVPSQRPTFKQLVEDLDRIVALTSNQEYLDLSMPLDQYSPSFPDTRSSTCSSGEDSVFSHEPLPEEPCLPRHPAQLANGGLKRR
Sequence of Fes (P07332 whole entry, looked up): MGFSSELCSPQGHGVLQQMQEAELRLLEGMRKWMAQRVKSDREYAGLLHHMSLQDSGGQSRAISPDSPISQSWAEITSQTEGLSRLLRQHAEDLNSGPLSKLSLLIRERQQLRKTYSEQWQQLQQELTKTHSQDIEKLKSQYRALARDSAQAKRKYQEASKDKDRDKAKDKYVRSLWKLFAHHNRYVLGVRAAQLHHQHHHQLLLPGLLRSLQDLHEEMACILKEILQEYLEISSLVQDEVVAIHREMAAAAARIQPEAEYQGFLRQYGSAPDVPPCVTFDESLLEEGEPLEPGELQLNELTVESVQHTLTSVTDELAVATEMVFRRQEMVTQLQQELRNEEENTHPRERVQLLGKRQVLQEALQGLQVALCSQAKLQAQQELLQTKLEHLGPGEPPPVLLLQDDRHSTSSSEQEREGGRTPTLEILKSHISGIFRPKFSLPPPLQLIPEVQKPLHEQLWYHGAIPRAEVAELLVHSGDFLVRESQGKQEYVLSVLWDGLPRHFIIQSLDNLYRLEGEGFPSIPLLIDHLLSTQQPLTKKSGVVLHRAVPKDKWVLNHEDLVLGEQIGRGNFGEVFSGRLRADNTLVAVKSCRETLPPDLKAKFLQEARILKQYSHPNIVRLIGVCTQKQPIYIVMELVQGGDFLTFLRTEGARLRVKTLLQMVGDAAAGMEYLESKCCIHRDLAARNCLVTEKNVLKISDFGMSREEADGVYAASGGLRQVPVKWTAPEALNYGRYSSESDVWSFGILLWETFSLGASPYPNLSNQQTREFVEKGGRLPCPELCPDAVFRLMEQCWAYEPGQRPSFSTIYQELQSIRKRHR
Sequence of Hck (P08631 whole entry, looked up): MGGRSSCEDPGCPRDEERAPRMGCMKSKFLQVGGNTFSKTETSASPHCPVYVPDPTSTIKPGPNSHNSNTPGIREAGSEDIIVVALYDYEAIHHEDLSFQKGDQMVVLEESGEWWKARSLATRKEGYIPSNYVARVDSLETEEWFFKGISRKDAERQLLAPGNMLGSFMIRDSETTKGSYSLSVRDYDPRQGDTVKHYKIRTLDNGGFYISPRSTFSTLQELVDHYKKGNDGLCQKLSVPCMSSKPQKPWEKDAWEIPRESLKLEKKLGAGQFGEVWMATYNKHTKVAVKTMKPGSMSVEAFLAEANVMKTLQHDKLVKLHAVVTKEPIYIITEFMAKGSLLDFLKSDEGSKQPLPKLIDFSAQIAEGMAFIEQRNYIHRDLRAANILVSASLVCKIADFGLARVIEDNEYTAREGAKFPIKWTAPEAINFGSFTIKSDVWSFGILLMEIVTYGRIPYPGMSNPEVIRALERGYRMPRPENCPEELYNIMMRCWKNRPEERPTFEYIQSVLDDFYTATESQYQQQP
Sequence of FGFR3 (P22607 whole entry, looked up): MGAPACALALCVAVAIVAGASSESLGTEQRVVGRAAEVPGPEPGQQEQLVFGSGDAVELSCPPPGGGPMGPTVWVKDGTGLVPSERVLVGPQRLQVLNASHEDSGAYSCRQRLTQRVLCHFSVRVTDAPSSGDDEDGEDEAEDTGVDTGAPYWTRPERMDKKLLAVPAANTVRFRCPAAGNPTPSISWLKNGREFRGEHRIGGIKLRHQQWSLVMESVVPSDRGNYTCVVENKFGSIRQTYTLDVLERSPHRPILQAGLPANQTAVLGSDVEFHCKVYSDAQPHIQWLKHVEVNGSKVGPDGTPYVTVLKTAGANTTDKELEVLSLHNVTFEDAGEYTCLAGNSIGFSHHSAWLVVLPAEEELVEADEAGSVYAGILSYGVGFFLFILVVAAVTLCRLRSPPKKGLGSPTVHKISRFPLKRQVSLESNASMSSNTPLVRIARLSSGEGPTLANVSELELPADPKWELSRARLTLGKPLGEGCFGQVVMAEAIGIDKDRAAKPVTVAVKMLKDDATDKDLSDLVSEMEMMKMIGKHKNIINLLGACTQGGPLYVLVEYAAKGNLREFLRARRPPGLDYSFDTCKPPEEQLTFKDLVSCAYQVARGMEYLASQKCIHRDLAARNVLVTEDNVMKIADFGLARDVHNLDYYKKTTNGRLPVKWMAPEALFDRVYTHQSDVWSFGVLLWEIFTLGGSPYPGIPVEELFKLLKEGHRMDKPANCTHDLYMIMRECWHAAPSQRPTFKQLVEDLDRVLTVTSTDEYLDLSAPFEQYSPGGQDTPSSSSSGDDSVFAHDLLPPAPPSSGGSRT

Sequence	SH2 binding enrichment [14]	SH2 binding enrichment [15]	SH2 binding enrichment [16]	phosphorylation enrichment [1]	phosphorylation enrichment [2]	phosphorylation enrichment [3]	phosphorylation enrichment [4]	phosphorylation enrichment [5]	phosphorylation enrichment [6]	phosphorylation enrichment [7]	phosphorylation enrichment [8]	phosphorylation enrichment [9]	phosphorylation enrichment [10]	phosphorylation enrichment [11]	phosphorylation enrichment [12]	phosphorylation enrichment [13]
PQIVKYRPDCI [LDHB_Y128_S129R]	1.26	0.817	0.671	0.89	0.627	0.131	0.302	0.537	0.12	0.839	0.699	0.238	0.391	0.133	0.069	0.663
CCNHPYLINGA [CHD7_Y1256]	0.804	0.704	0.541	0.651	0.352	0.495	0.443	0.552	0.419	0.851	0.57	0.519	0.641	0.461	0.538	2.72
NDLMEYPKQHG [ASS1_Y163_A164P]	0.887	0.571	0.538	0.738	0.46	0.48	0.506	0.48	0.377	0.855	0.503	0.502	0.765	0.45	0.697	0.447
SFPSTYRYERG [INPPL1_Y661_P659S]	0.987	0.728	0.633	0.484	0.453	0.397	0.39	0.449	0.418	0.813	0.439	0.392	0.767	0.455	0.52	0.463
QDDYSYPSRQM [LDLR_Y847_G844D]	0.93	0.564	1.06	13.3	3.54	7.79	2.04	1.66	1.66	2.17	1.46	1.02	1.74	1.13	4.49	1.02
EPGNLYIAKVE [CNTN4_Y180_T176P]	0.788	0.553	0.405	0.833	0.454	0.482	0.435	0.605	0.408	1.09	0.386	0.502	0.898	0.347	0.665	0.439
VHLFAYDWISI [BEST1_Y227_G222V_YF]	1.3	1.36	0.972	1.27	1.06	0.868	1.41	1.17	10.4	1.38	0.589	0.804	1.04	4.12	0.69	0.651
PELINYHQHNF [BTK_Y361_S366F]	1.03	0.716	0.434	1.04	0.631	0.826	0.851	0.598	0.736	1.25	0.789	0.836	1.02	0.696	0.919	0.942
ISGLKYPVSQQ [BTK_Y375_R372G]	0.879	0.63	0.417	0.529	0.501	0.529	0.428	0.459	0.371	0.548	0.441	0.448	0.516	0.474	0.392	0.407
ISDDNYGRIRL [ARCN1_Y310_K309N]	1	0.77	0.518	0.554	0.521	1.21	0.407	0.428	1.32	0.516	0.704	1.83	0.525	0.344	0.402	0.885
RETLTYAQAQG [BRD1_Y33_R38G]	–	–	–	0.579	–	0.934	0.916	0.149	0.383	0.448	0.551	0.982	–	0.391	0.418	0.768
AQADIYKANFQ [IKBKG_Y308_D311N]	0.873	0.729	0.504	0.586	0.361	0.408	0.389	0.573	0.461	0.81	0.536	0.659	0.829	0.461	0.761	0.799
LFQAKYQIRYR [CRLF1_Y272]	1.46	1.67	1.22	1.07	0.79	0.517	0.566	0.789	0.325	1.33	0.477	0.763	0.949	0.465	0.779	0.531
HEHVGYTTLNR [CHN1_Y148_Y143H]	0.88	61.4	3.47	0.63	0.498	0.429	0.573	0.744	0.351	0.667	0.489	0.57	0.669	0.44	0.936	0.618
SSFSGYIMMPN [LEF1_Y114_YF]	0.999	1.03	2.08	1.02	0.433	1.47	1.53	1.39	0.401	0.934	0.534	0.421	3.33	0.562	0.603	0.4
KVWGIYDCQQP [CYP3A7_Y75]	0.78	0.761	0.472	1.56	6.6	2.3	0.687	0.772	2.48	1.61	7.28	6.28	1.14	4.76	0.998	4.49
YSKTQYNQVPS [CXADR_Y318]	0.748	0.714	0.767	0.473	0.351	0.318	0.393	0.429	0.386	0.522	0.461	0.343	0.502	0.467	0.729	0.387
GYRPVYSEDEQ [CHST6_Y362]	0.921	0.669	0.692	1.26	0.677	0.762	0.471	0.806	0.643	1.24	0.61	0.49	1.16	0.48	0.774	0.636
ERLWDCGMSSS [F8_Y1728_Y1728C]	1.15	0.9	0.634	0.803	0.535	0.52	0.553	0.537	0.371	0.771	0.517	0.451	0.74	0.387	0.49	0.388
KYLENYYDLKK [MMP3_Y41]	1.02	0.73	0.775	0.922	7.15	2.77	7.68	4.8	0.513	0.99	2.24	2.16	0.782	0.709	0.736	1.15
MSLRSYGSWEG [APC_Y96_R99W]	0.45	0.412	0.282	1.32	0.581	0.338	0.034	0.671	–	0.881	0.633	0.459	0.793	0.047	0.273	0.705

Continued, in another order:

SH2 binding enrichment [14]	SH2 binding enrichment [15]	SH2 binding enrichment [16]	Sequence	phosphorylation enrichment [1]	phosphorylation enrichment [2]	phosphorylation enrichment [3]	phosphorylation enrichment [4]	phosphorylation enrichment [5]	phosphorylation enrichment [6]	phosphorylation enrichment [7]	phosphorylation enrichment [8]	phosphorylation enrichment [9]	phosphorylation enrichment [10]	phosphorylation enrichment [11]	phosphorylation enrichment [12]	phosphorylation enrichment [13]
0.664	0.646	0.463	SVTCTYSPAFN [TP53_Y126_L130F]	1.35	0.8	0.59	0.49	0.897	0.553	1.51	0.518	0.592	1.31	0.418	1	0.66
0.808	0.6	0.495	YQKDVYNIPPS [NEDD9_Y177_D178N]	0.81	0.456	0.532	0.623	0.529	0.472	0.702	4.4	2.34	0.805	1.64	0.584	3.29
1	0.606	0.438	KTVQDYLKKFY [MMP8_Y36_E38K]	0.571	0.396	0.398	0.428	0.382	0.325	0.687	0.366	0.438	0.517	0.454	1.42	0.421
0.936	1.06	0.695	FADIAYIYRHG [PAH_Y166_N167I]	0.842	0.506	0.497	0.616	0.583	0.486	0.978	0.432	0.445	1.02	0.416	0.685	0.638
1	0.769	0.588	KVGPGYLGSRG [RET_Y826_G830R]	0.402	0.302	0.345	0.318	0.339	0.328	0.55	0.329	0.327	0.439	0.457	0.444	0.366
0.783	0.612	1.18	FSAGTYPRLEE [SYCN_Y108]	0.765	0.493	0.464	0.464	0.659	0.464	0.918	0.41	0.406	0.828	0.372	0.672	0.392
0.888	0.626	0.384	GHGEEYPAAGA [NOTCH3_Y2221]	0.682	0.41	0.327	0.413	0.719	0.433	0.821	0.426	0.431	0.549	0.379	0.469	0.377
0.713	2.38	0.717	PLQKTYNFNML [SLC4A1_Y553_V557M_YF]	0.801	0.476	0.587	0.318	0.809	0.665	1.17	0.493	0.594	0.861	0.582	0.63	0.784
0.736	0.738	0.551	FEPWVYSFSFE [PRKDC_Y647_YF]	1.59	0.775	0.744	0.653	1.03	1.34	1.65	6.63	3.01	1.25	1.66	0.842	6.33
0.702	0.674	0.337	VSLEAYCKHKF [RXRA_Y403_A398V_YF]	0.949	0.571	0.509	0.392	0.568	0.411	1.07	0.399	0.353	1.11	0.443	0.898	0.556
0.807	0.658	0.603	VECRVYAEDPY [PCCA_Y401]	1.47	0.908	0.794	0.619	1.13	0.708	1.73	0.612	0.686	1.26	0.56	1.28	0.75
0.662	0.649	0.89	VTVLDYEKIGK [SYT1_Y365_D366E]	0.783	1.07	0.524	0.456	0.561	0.412	0.868	0.479	0.573	0.77	0.393	0.54	0.355
